Where “and” joins values, the source holds several entries; their conditions need not be identical. Identical values can stand only once.
Biological target: LtMCC α6β6 dodecamer (L. tarentolae (endogenous in L. tarentolae TATII/UC cells))
Experiment: filament lengths counted on cryoEM micrographs

- stoichiometry N: 4 and 6
Substance: LtMCC α6β6 dodecamer (complex)

From publication PMC9825669
